Like-named read-outs stand apart in the source and are kept apart here.

The target in experiment [1] is T1, Biotinylated Recombinant Human PD-1/CD279-Fc Chimera (human, UniProt Q15116 25-167, biotinylated).
T1 construct: Bought (Biolegend #789406); also called recombinant biotinylated human PD-1
The experiment can be described thus: ELISA: antibody coated on the plate (5 µg/ml), biotinylated human PD-1-Fc titrated (x-axis, Concentration (nM)), streptavidin-HRP/TMB, 450 nm.

In experiment [2] the target is T2, recombinant biotinylated human FcRn (human, UniProt P55899 24-297; P61769 21-119, limits assumed, biotinylated).
T2 construct: Kit reagent; also called human neonatal Fc receptor
The experiment can be described thus: AlphaLISA competition at pH 6: test antibody titrated against human IgG acceptor beads for biotinylated human FcRn on streptavidin donor beads; loss of signal. How it is done: (§1) The interaction of the unmodified and of conjugated anti-PD1 antibodies with the human neonatal Fc receptor (FcRn) at pH 6 was measured using the AlphaLISA® Human FcRn Binding Kit (AL3095C) from Perkin Elmer (Schwerzenbach, Switzerland).
(§2) After 90 min at 23° C. in the dark, AlphaLISA® signal was measured on an EnSpire plate reader (Excitation at 680 nm, Emission at 615 nm) from Perkin Elmer (Schwerzenbach, Switzerland).

In experiment [3] the target is human PD-1 on Jurkat T cells (human, UniProt Q15116 25-288). The experiment can be described thus: cell-based or functional assay.
The target of experiment [4] is T2, recombinant biotinylated human FcRn. The experiment can be described thus: AlphaLISA competition at pH 6; competitor human IgG acceptor beads. As for the experimental part: as §1, §2
The target is the same in experiment [5]. The description is as above. As for the experimental part: as §1, §2
This is another data set of the same source.

The target in experiment [6] is T3, recombinant Human Fc gamma RI/CD64 Protein (human, UniProt P12314 16-288).
T3 construct: also called FcγRI/(CD64); human Fc gamma receptor I
The experiment can be described thus: ELISA; antibody coated, His-tagged receptor titrated. As for the experimental part: (§3) The interaction of the unmodified and of conjugated antibodies with human Fc gamma receptors I (FcγRI/CD64), with human Fc gamma receptors IIa (FcγRIIa/CD32a), with inhibitory human Fc gamma receptors IIb (FcγRIIb/CD32b), and with human Fc gamma receptors III FcγRIIIa/CD16 were measured by ELISA.
(§4) Briefly, Corning high-binding half-area plates (Fisher Scientific, Reinach, Switzerland) were coated overnight at 4° C. with 25 ul of unmodified and of conjugated anti-PD1 antibodies at 2.5 μg/ml in PBS. Plates were then washed four times with 100 ul of PBS-0.02% Tween20. Plates surfaces were blocked with 25 ul of PBS-0.02% Tween20-1% BSA at 37° C. during 1h. Plates were then washed four times with 100 ul of PBS-0.02% Tween20. Then twenty-five microliters of either recombinant Human Fc gamma RI/CD64 Protein (R&D systems, 1257-FC-050, CF), recombinant Human Fc gamma RIIA/CD32a (H167) Protein (R&D systems, 9595-CD-050, CF), recombinant Human Fc gamma RIIB/CD32b Avi-tag Protein (R&D systems, AVI1875-050, CF), or recombinant Human Fc gamma RIIIA/CD16a Protein (R&D systems, 4325-FC-050; CF) were added in five-fold serial dilutions ranging from 1000 nM to 0.001 nM into PBS-0.02% Tween20-0.1% BSA and incubated at 37° C. during 2h. Plates were then washed four times with 100 ul of PBS-0.02% Tween20. Twenty-five microliters of a 1/500 HRP-anti-His antibody in PBS-0.02% Tween20-0.1% BSA (R&D systems, anti-HIS-HRP Ab, #MAB050H) were added to each well and plates were incubated at Room Temperature during 1h. Plates were then washed four times with 100 ul of PBS-0.02% Tween20. Fifty microliters of TMB substrate reagent (#CL07, Merck, Buchs, Switzerland) were added to each well and incubated at 37° C. during 5 min. After 5 min at 37° C., Horseradish peroxidase reaction was stopped by adding 50 ul/well of 0.5M H2SO₄ stop solution. ELISA signal was then measured at 450 nm on an EnSpire plate reader from Perkin Elmer (Schwerzenbach, Switzerland).

Experiment [7] deals with T4, recombinant Human Fc gamma RIIIA/CD16a Protein (human, UniProt P08637 17-208, limits assumed).
T4 construct: also called FcγRIIIa (CD16)
Described as above. As for the experimental part: as §3, §4

In experiment [8] the target is T5, recombinant Human Fc gamma RIIB/CD32b Avi-tag Protein (human, UniProt P31994 46-217).
T5 construct: also called FcγRIIb (CD32b)
T5 sequence (looked up): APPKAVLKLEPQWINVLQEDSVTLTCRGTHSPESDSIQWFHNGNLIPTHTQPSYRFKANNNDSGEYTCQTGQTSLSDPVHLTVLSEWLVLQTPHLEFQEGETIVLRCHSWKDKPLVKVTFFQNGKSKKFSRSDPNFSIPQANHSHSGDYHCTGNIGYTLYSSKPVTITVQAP
Described as above. How it is done:
as §3, §4

Experiment [9] concerns the target T6, recombinant Human Fc gamma RIIA/CD32a (H167) Protein (human, UniProt P12318 36-218, limits assumed).
T6 construct: also called FcγRIIa (CD32a)
T6 sequence (looked up): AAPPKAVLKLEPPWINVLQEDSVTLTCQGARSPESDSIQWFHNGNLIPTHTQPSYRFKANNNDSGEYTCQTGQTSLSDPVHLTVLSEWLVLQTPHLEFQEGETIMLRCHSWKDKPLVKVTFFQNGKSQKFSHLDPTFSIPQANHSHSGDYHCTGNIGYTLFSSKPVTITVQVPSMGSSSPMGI
Described as above. How it is done:
as §3, §4

Experiment [10] has as its target T2, recombinant biotinylated human FcRn. The experiment can be described thus: AlphaLISA competition at pH 6: test antibody titrated against human IgG acceptor beads for biotinylated human FcRn on streptavidin donor beads; normalized signal.
Experiment [11] deals with T3, recombinant Human Fc gamma RI/CD64 …. Kind of experiment: ELISA: antibody coated (2.5 µg/ml), His-tagged recombinant human FcγRI/CD64 titrated (x-axis), anti-His-HRP/TMB, 450 nm. As for the experimental part: as §3
as §4, with “Plates were then washed four times with 100 ul of PBS-0.02% Tween20. Twenty-five microliters of a 1/500 HRP-anti-His antibody in PBS-0.02% Tween20-0.1% BSA (R&D systems, anti-HIS-HRP Ab, #MAB050H) were added to each well and plates were incubated at Room Temperature during 1h. Plates were then washed four times with 100 ul of PBS-0.02% Tween20. Fifty microliters of TMB substrate reagent (#CL07, Merck, Buchs, Switzerland) were added to each well and incubated at 37° C. during 5 min. After 5 min at 37° C., Horseradish peroxidase reaction was stopped by adding 50 ul/well of 0.5M H2SO₄ stop solution.” left out

B1: LZM-009 (antibody, human IgG4 S228P, kappa)
heavy: not shown
light: EIVLTQSPATLSLSPGERATISCRASKGVSTSGYSYLHWYQQKPGQAPRLLIYLASYLESGVPARFSGSGSGTDFTLTISSLEPEDFATYYCQHSRELPLTFGTGTKVEIKRTVAAPSVFIFPPSDEQLKSGTASVVCLLNNFYPREAKVQWKVDNALQSGNSQESVTEQDSKDSTYSLSSTLTLSKADYEKHKVYACEVTHQGLSSPVTKSFNRGEC
notes: IgG4 anti-PD-1 antibody; also called CMP2000
Take B1: the half-maximal effective concentration (EC50 (read off the curve)) in experiment [1] is ~0.03 nM; in [3] it was ~2 nM; in experiment [11], ~0.2 nM. The “IC50 (read off the curve)” value in experiment [2] and in experiment [10] was ~5 nM each time. Further, the Kd in experiment [4] was determined as 6 nM; in experiment [5], 6 nM; in experiment [6] it was 0.315 nM; in [7], 1710 nM; in experiment [8] it was 2630 nM; in [9], 1350 nM.

The values are drawn from patent publication US20250188166A1 (BRIGHT PEAK THERAPEUTICS, published 2025).
